Patent US6753151B1, “Interactions of Ku polypeptides and applications thereof” (Kudos Pharmaceuticals Limited, priority 1999, dated 2004)
Entries after “also recorded” stand apart in the source; their conditions may differ.

Assays:
DNA-PKcs = DNA-PKcs (Homo sapiens, UniProt P78527); assay: GST pull-down from HeLa cell nuclear extract; type: binding; parameters: incubated with ˜100 μg (10 μl) of HeLa Cell nuclear extract (NE); host or cells: HeLa cell nuclear extract; details: for effect of EtBr on interaction with DNA-PKcs in HeLa nuclear extract: EtBr 0.2 mg/ml; for proteins retrieved from crude HeLa nuclear extract: washed in buffer X containing 150 mM KCl, silver-staining
DNA-PKcs, sequence (P78527 whole entry): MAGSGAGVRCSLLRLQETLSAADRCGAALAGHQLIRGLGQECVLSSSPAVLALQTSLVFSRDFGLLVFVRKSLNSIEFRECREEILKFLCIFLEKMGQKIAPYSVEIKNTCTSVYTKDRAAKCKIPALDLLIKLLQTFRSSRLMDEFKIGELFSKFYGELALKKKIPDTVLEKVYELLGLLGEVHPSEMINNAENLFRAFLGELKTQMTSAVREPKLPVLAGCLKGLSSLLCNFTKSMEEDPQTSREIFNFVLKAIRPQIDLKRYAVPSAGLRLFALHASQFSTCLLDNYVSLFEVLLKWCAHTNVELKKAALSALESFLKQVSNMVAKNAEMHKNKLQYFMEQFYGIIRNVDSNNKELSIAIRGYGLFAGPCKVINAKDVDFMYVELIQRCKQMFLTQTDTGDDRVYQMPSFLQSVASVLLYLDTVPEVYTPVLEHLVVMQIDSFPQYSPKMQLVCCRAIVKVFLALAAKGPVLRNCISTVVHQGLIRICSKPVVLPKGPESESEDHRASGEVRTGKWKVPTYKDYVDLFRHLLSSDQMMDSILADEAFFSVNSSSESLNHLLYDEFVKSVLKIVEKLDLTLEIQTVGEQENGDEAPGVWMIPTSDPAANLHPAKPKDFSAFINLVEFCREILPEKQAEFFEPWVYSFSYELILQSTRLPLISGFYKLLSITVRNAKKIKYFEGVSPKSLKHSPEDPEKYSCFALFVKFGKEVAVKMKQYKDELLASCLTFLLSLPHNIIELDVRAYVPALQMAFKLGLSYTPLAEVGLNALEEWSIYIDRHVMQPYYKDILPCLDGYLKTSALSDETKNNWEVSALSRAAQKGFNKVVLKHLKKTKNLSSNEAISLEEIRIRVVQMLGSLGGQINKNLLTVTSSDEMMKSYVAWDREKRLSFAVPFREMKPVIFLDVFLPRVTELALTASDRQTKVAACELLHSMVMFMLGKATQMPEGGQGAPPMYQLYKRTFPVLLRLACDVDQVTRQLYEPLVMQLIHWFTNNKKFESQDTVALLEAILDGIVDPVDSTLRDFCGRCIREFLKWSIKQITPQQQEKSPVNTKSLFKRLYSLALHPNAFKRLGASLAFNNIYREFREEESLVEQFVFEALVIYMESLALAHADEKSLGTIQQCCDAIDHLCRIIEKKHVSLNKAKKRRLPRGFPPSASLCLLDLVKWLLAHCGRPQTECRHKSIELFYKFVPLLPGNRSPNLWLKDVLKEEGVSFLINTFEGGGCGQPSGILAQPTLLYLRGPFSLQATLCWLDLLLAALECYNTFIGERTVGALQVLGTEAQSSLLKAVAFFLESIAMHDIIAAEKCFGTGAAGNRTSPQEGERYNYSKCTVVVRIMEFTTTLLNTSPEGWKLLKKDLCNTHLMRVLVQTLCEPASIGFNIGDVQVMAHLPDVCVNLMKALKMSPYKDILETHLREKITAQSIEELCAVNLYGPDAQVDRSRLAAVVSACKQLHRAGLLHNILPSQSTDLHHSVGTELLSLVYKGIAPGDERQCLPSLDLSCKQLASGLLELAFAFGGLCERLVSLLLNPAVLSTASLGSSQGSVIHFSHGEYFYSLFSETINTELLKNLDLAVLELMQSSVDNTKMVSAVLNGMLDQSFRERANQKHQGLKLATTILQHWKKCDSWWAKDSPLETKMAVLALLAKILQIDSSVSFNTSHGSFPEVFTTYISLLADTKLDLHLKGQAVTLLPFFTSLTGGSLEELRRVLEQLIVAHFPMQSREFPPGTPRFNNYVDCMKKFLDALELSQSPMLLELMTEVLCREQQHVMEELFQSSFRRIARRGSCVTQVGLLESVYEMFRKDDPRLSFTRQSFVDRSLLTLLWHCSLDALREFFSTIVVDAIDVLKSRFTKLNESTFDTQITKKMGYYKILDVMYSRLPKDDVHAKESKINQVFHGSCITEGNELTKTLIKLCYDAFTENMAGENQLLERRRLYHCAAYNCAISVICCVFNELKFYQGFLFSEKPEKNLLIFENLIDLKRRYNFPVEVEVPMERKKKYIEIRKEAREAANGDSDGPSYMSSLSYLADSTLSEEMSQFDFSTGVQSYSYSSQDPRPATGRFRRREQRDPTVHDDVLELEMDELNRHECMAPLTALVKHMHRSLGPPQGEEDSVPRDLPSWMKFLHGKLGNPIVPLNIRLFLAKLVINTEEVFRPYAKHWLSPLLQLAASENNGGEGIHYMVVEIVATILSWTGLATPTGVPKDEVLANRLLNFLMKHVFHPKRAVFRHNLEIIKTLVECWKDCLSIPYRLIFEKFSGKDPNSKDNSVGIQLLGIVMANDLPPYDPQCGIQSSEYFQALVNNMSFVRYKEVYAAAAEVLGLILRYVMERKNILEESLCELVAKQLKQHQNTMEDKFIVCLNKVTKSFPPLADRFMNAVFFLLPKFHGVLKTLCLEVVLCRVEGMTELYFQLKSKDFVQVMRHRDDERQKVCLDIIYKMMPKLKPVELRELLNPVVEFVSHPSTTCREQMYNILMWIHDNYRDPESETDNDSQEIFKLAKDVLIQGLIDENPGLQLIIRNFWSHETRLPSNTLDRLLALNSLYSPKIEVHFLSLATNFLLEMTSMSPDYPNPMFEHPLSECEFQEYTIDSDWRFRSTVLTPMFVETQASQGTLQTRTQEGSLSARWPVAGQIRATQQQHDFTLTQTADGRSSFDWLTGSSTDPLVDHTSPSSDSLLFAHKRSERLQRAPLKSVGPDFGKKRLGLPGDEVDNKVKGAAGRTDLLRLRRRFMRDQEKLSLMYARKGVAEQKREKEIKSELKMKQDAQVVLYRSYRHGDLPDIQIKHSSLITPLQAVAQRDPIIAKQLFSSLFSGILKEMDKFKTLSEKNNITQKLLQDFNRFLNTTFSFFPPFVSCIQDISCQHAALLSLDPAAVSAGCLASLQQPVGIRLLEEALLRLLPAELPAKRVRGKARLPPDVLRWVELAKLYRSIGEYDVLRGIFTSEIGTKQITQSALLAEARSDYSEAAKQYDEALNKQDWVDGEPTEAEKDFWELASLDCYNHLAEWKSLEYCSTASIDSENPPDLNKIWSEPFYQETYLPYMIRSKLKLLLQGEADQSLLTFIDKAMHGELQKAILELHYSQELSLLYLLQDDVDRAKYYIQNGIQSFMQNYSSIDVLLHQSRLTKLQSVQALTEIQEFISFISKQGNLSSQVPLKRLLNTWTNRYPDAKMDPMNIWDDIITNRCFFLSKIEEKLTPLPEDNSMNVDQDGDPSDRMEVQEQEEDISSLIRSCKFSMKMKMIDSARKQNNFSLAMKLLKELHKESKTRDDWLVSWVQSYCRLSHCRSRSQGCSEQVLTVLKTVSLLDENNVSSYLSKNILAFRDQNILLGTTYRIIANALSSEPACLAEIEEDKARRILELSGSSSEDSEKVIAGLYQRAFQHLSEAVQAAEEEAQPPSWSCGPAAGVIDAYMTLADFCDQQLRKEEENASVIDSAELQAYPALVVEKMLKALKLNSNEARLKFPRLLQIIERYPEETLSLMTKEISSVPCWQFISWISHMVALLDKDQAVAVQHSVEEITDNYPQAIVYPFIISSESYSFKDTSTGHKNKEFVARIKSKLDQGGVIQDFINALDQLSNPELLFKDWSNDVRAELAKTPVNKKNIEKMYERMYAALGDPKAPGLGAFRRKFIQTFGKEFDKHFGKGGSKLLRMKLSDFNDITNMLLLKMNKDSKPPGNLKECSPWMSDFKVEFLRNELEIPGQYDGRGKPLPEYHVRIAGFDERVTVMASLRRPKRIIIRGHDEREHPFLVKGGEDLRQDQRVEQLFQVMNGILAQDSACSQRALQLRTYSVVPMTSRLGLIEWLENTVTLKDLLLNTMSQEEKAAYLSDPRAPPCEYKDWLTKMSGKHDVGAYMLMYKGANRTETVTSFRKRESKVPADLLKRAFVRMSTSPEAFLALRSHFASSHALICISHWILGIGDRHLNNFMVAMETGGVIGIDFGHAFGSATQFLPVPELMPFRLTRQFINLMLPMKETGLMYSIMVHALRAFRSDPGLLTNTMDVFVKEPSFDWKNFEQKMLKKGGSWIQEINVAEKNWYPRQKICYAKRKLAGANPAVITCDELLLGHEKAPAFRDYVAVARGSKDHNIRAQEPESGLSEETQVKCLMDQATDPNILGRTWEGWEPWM
Method: (§1) GST-Ku70 or GST-Ku80 (0.5-2.0 μg), or deletion derivative thereof, bound to Glutathione agarose beads, was incubated with ˜100 μg (10 μl) of HeLa Cell nuclear extract (NE) and 80 μl of Z′ buffer (25 mM HEPES pH 6.7, 12.5 mM MgCl2, 1 mM dithiothreitol, 0.1% Nonidet P40 (BDH), 20% Glycerol) containing the specified concentration of KCl (for example, 50 mM Z′ contains 50 mM KCl in addition to the other buffer components). Binding reactions were incubated at 4° C. for 3-4 hours and the beads recovered by centrifugation and washed 7 times in 1 ml of Buffer X (25 mM HEPES pH 6.7, 2 mM MgCl2, 1 mM Dithiothreitol, 0.4% Nonidet P40) containing the specified concentration of KCl (for example, 120 mM Buffer X contains 120 mM KCl in addition to the other buffer components). Proteins retained on the beads after washing were eluted in SDS gel-loading buffer and half of the sample subjected to polyacrylamide gel eletrophoresis and silver staining. “Pulldown” assays from purified DNA-PKcs were done as above with 400 ng of purified DNA-PKcs substituted for HeLa NE.
The inventors performed pull-down assays from HeLa cell nuclear extract using GST-Ku70 or GST-Ku80 bound to glutathione agarose beads. Thus, GST-Ku70 or GST-Ku80 protein was purified on glutathione agarose beads as described above, and the beads incubated with crude HeLa cell nuclear extract and washed extensively in buffer X containing 150 mM KCl. The bound proteins were then eluted in the presence of SDS, subjected to SDS-PAGE on a 6% polyacrylamide gel and detected by silver-staining. A control binding reaction was carried out using beads containing only GST.
The inventors investigated whether the observed interactions between DNA-PKcs and the individual Ku subunits were indirect and were being mediated by DNA and/or the Ku heterodimer present in the HeLa nuclear extract. EtBr was used in a final concentration of 0.2 mg/ml in order to address the potential involvement of DNA (EtBr disrupts protein-DNA interactions).

purified DNA-PKcs = target: T1, purified DNA-PKcs (Homo sapiens, UniProt P78527); assay: GST pull-down with purified DNA-PKcs; type: binding; details: for effect of DNA or EtBr on binding of purified DNA-PKcs: 20 ng/μl sonicated calf thymus DNA or 0.2 mg/ml EtBr; for salt dependence of interaction with homogeneous DNA-PKcs: 50 mM to 150 mM KCl; for interaction with purified DNA-PKcs: 120 mM KCl, silver-staining
T1 construct: The starting material for purification of DNA-PKcs was HeLa NE; host or cells: HeLa nuclear extract; purified in house over Q Sepharose, heparin agarose, phenyl Sepharose and Mono-S
T1 sequence (P78527 whole entry): as above
Method: as §1
The starting material for purification of DNA-PKcs was HeLa NE obtained from the Computer Cell Culture Centre, Mons, Belgium. All purification steps were performed in buffer D (20 mM HEPES pH 7.6, 2 mm MgCl2, 0.2 mM EDTA, 10% Glycerol) with a specified concentration of KCl (for example 50 mM Buffer D contains 50 mM KCl in addition to the other buffer components). In a representative purification, 35 ml of HeLa NE was cleared by centrifugation and diluted to a final concentration of 50 mM Buffer D, and protease inhibitors added (Boehringer). This was loaded onto a 60 ml column of Q Sepharose (Pharmacia) and eluted in a linear salt gradient of 50-500 mM Buffer D. Under these conditions the majority of DNA-PKcs and Ku were separated into two fractions peaking at approximately 200 mM Buffer D, and 450 mM Buffer D respectively. The DNA-PKcs fraction was adjusted to 100 mM KCl using 0 mM Buffer D (salt concentration was measured by conductivity) and applied to a 10 ml column of heparin agarose (Sigma). The column was developed with a linear gradient of 100-200 mM Buffer D. The peak DNA-PKcs fraction from the heparin column was adjusted to 0.5 M ammonium sulphate and applied to a 2.5 ml column of phenyl Sepharose (Pharmacia) equilibrated in, typically, 300 mM Buffer D containing 0.5 M ammonium sulphate. Under these conditions, 100% of DNA-PKcs is retained by the column, whilst the majority of contaminating Ku flows through (as judged by western blotting using antibodies specific to the Ku subunits). The column was then washed extensively in 0 mM Buffer D containing 0.5 M ammonium sulphate, and subsequently in 0 mM Buffer D containing 0.4 M ammonium sulphate, which removes most of the remaining Ku, before applying a linear gradient of 0.4-0 M ammonium sulphate in 0 mM Buffer D. Peak DNA-PKcs fractions were dialysed into 50 mM Buffer D, applied to a 1 ml Mono-S FPLC column (Pharmacia), and eluted in a linear gradient of 50-500 mM Buffer D. Peak fractions were dialysed into 50 mM Buffer D and stored at −80° C. prior to use. The resulting protein preparation contained a single abundant polypeptide corresponding to DNA-PKcs as judged by Coomassie staining, silver staining and western blotting, with a ladder of smaller DNA-PKcs breakdown products. […] To assess the levels of Ku contamination in the DNA-PKcs preparation we carried out quantitative western blotting using Ku-specific antibodies. In these western blots, an essentially homogeneous preparation of Ku was titrated against known amounts of our DNA-PKcs preparations.
GST-Ku70 or GST-Ku80 containing glutathione agarose beads were incubated with 0.4 μg of purified DNA-PKcs under conditions of 120 mM KCl. The beads were then washed and any proteins retained on the beads were detected by silver-staining.
A control binding reaction using beads containing GST alone was also carried out. […]

Substance: GST-Ku70: full length human Ku70 fused to glutathione S-transferase, expressed in E. coli
- effect of EtBr on interaction with DNA-PKcs in HeLa nuclear extract (DNA-PKcs): essentially abolished by EtBr treatment
- proteins retrieved from crude HeLa nuclear extract (DNA-PKcs): DNA-PKcs is the only protein that is retrieved
- effect of DNA or EtBr on binding of purified DNA-PKcs (purified DNA-PKcs): no affect
- effect of DNA or EtBr on binding of purified DNA-PKcs (purified DNA-PKcs; listed as Ku70): no stimulation of binding was observed in the presence of DNA
- salt dependence of interaction with homogeneous DNA-PKcs (purified DNA-PKcs): at lower but not at higher ionic strengths, there is an interaction
- interaction with purified DNA-PKcs (purified DNA-PKcs): very little interaction

Substance: GST-Ku80: full length human Ku80 fused to glutathione S-transferase, expressed in E. coli
- effect of EtBr on interaction with DNA-PKcs in HeLa nuclear extract (DNA-PKcs): unaffected by EtBr
- proteins retrieved from crude HeLa nuclear extract (DNA-PKcs): DNA-PKcs is the only protein that is retrieved
- effect of DNA or EtBr on binding of purified DNA-PKcs (purified DNA-PKcs): not affected by EtBr or by sheared genomic DNA; also recorded: no affect
- salt dependence of interaction with homogeneous DNA-PKcs (purified DNA-PKcs): still easily detectable at 150 mM KCl
- interaction with purified DNA-PKcs (purified DNA-PKcs): interacts efficiently with purified DNA-PKcs
